Data taken from patent US20210238260.

Tests used:
[1] = molecular target: plasma purified human AT-III (Molecular Innovations), in complex with low molecular weight heparin
[2] = molecular target: antithrombin III (plasma purified human AT-III), used as the AT-III/unfractionated heparin complex; test: K0.5 ratio to Catalyst Biosciences WT FIXa, AT-III/UFH inhibition assay (from lower-limit K0.5)
[3] = molecular target: T1, Antithrombin III (plasma purified human AT-III, Molecular Innovations); test: same assay; ratio of the lower-limit K0.5 to recombinant wild-type FIXa (Catalyst Biosciences WT)
[4] = molecular target: T1, Antithrombin III (plasma purified human …); test: AT-III/UFH inhibition, standard assay (35 nM-0 nM AT-III); 999 nM is the assigned lower limit for less than 10% inhibition
[5] = molecular target: plasma purified human antithrombin III (AT-III), in complex with unfractionated heparin; test: K0.5 of variant over K0.5 of Catalyst Biosciences WT FIXa; AT-III/UFH inhibition assay; from lower limit K0.5
[6] = molecular target: plasma purified human AT-III (antithrombin III); test: same assay; ratio to K0.5 of Catalyst Biosciences WT FIXa

Sequence of Factor X, P00742 (P00742 whole entry, looked up): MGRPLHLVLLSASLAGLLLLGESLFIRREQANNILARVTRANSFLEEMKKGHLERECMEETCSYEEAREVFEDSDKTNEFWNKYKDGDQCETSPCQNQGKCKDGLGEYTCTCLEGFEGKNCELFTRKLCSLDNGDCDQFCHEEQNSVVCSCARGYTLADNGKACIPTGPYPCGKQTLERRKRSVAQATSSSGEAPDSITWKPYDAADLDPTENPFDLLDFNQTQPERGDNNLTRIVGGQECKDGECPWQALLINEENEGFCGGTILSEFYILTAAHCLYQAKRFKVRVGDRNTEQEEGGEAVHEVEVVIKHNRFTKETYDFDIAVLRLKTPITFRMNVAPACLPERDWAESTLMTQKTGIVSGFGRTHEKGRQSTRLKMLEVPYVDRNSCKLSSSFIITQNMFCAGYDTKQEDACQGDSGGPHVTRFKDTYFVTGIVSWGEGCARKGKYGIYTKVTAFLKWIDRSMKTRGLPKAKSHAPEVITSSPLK
Sequence of Factor X (FX), P00742 (P00742 whole entry, looked up): as above

Row | Protein | % of WT kcat/KM (Factor X (FX), P00742) [%] | kcat (Factor X (FX), P00742) [s⁻¹] | kcat/KM (Factor X (FX), P00742) [M⁻¹ s⁻¹] | KM (Factor X, P00742) [µM] | K0.5 [1] [nM] | K0.5-mut/K0.5-wt [1] [fold] | K0.5-mut/K0.5-wt [2] [fold] | K0.5-mut/K0.5-wt [3] | K0.5 [4] [nM] | KM (Factor X (FX), P00742) [µM] | K0.5-mut/K0.5-wt [5] | K0.5-mut/K0.5-wt [6]
1 | FIXa-K293A/R338A/R403A (protein) chain 1: YNSGKLEEFVQGNLERECMEEKCSFEEAREVFENTERTTEFWKQYVDGDQCESNPCLNGGSCKDDINSYECWCPFGFEGKNCELDVTCNIKNGRCEQFCKNSADNKVVCSCTEGYRLAENQKSCEPAVPFPCGRVSVSQTSKLTR chain 2: VVGGEDAKPGQFPWQVVLNGKVDAFCGGSIVNEKWIVTAAHCVETGVKITVVAGEHNIEETEHTEQKRNVIRIIPHHNYNAAINKYNHDIALLELDEPLVLNSYVTPICIADAEYTNIFLKFGSGYVSGWGRVFHKGRSALVLQYLRVPLVDRATCLASTKFTIYNNMFCAGFHEGGRDSCQGDSGGPHVTEVEGTSFLTGIISWGEECAMKGKYGIYTKVSAYVNWIKEKTKLT | 55 | 1.6 | 2.5e+07 | 0.0654 | 497 | 16.9 | > 51.7 | > 51.7 | > 999 |  |  | 
2 | FIXa-K293E/R338E/R403E (protein) chain 1: YNSGKLEEFVQGNLERECMEEKCSFEEAREVFENTERTTEFWKQYVDGDQCESNPCLNGGSCKDDINSYECWCPFGFEGKNCELDVTCNIKNGRCEQFCKNSADNKVVCSCTEGYRLAENQKSCEPAVPFPCGRVSVSQTSKLTR chain 2: VVGGEDAKPGQFPWQVVLNGKVDAFCGGSIVNEKWIVTAAHCVETGVKITVVAGEHNIEETEHTEQKRNVIRIIPHHNYNAAINKYNHDIALLELDEPLVLNSYVTPICIADEEYTNIFLKFGSGYVSGWGRVFHKGRSALVLQYLRVPLVDRATCLESTKFTIYNNMFCAGFHEGGRDSCQGDSGGPHVTEVEGTSFLTGIISWGEECAMKGKYGIYTKVSEYVNWIKEKTKLT | 37 | 0.8 | 1.7e+07 | 0.05 | 418 | 14.2 | > 51.7 | > 51.7 | > 999 |  |  | 
3 | FIXa D104N/K106S/Y155F/R318Y/R338E/R403E/E410N (protein) chain 1: YNSGKLEEFVQGNLERECMEEKCSFEEAREVFENTERTTEFWKQYVDGDQCESNPCLNGGSCKDDINSYECWCPFGFEGKNCELDVTCNIKNGRCEQFCKNSANNSVVCSCTEGYRLAENQKSCEPAVPFPCGRVSVSQTSKLTR chain 2: VVGGEDAKPGQFPWQVVLNGKVDAFCGGSIVNEKWIVTAAHCVETGVKITVVAGEHNIEETEHTEQKRNVIRIIPHHNYNAAINKYNHDIALLELDEPLVLNSYVTPICIADKEYTNIFLKFGSGYVSGWGRVFHKGYSALVLQYLRVPLVDRATCLESTKFTIYNNMFCAGFHEGGRDSCQGDSGGPHVTEVEGTSFLTGIISWGEECAMKGKYGIYTKVSEYVNWIKNKTKLT |  |  |  |  |  |  |  |  |  | 0.048 | > 517 | 
4 | FIXa-A103N/N105S/R318Y/R338E/R403E/E410N (protein) chain 1: YNSGKLEEFVQGNLERECMEEKCSFEEAREVFENTERTTEFWKQYVDGDQCESNPCLNGGSCKDDINSYECWCPFGFEGKNCELDVTCNIKNGRCEQFCKNSNDSKVVCSCTEGYRLAENQKSCEPAVPFPCGRVSVSQTSKLTR chain 2: VVGGEDAKPGQFPWQVVLNGKVDAFCGGSIVNEKWIVTAAHCVETGVKITVVAGEHNIEETEHTEQKRNVIRIIPHHNYNAAINKYNHDIALLELDEPLVLNSYVTPICIADKEYTNIFLKFGSGYVSGWGRVFHKGYSALVLQYLRVPLVDRATCLESTKFTIYNNMFCAGFHEGGRDSCQGDSGGPHVTEVEGTSFLTGIISWGEECAMKGKYGIYTKVSEYVNWIKNKTKLT |  | 5.4 |  | 0.0447 |  |  |  |  |  |  |  | 475
5 | FIXa-D203N/F205T/R318Y/E410N (protein) chain 1: YNSGKLEEFVQGNLERECMEEKCSFEEAREVFENTERTTEFWKQYVDGDQCESNPCLNGGSCKDDINSYECWCPFGFEGKNCELDVTCNIKNGRCEQFCKNSADNKVVCSCTEGYRLAENQKSCEPAVPFPCGRVSVSQTSKLTR chain 2: VVGGEDAKPGQFPWQVVLNGKVNATCGGSIVNEKWIVTAAHCVETGVKITVVAGEHNIEETEHTEQKRNVIRIIPHHNYNAAINKYNHDIALLELDEPLVLNSYVTPICIADKEYTNIFLKFGSGYVSGWGRVFHKGYSALVLQYLRVPLVDRATCLRSTKFTIYNNMFCAGFHEGGRDSCQGDSGGPHVTEVEGTSFLTGIISWGEECAMKGKYGIYTKVSRYVNWIKNKTKLT |  | 1.6 |  | 0.0457 |  |  |  |  |  |  |  | 66.2
